How the values were obtained:
[1] = target: CzcR3, the response regulator of two-component system CzcRS3 (Pseudomonas putida KT2440) (UniProt F6KX51); assay: electrophoresis analysis; purified His-tagged CzcR3 alone, in vitro; kind of gel and conditions not told in the text (Figure S1)
[2] = tested on: T1, CzcR3 (Pseudomonas putida KT2440), ORF:67c4da9b; assay: EMSA; conditions: 10 mM Tris-HCl pH 8.0, 50 mM KCl, 5 mM MgCl2, 5% glycerol, 28 °C 20 min; EMSA 10 nM FAM probe (carbamyl phosphate with CzcR3); footprinting 40 nM probe, about …
T1 sequence: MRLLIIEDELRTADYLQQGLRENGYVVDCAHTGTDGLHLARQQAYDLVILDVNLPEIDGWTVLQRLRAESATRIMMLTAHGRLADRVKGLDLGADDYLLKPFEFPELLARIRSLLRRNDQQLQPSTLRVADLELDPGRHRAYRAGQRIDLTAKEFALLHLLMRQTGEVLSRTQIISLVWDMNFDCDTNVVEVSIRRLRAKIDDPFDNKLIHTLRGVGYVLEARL

[3] = tested on: T1, CzcR3 (Pseudomonas putida KT2440), ORF:67c4da9b; assay: DNase I footprinting; conditions: 10 mM Tris-HCl pH 8.0, 50 mM KCl, 5 mM MgCl2, 5% glycerol, 28 °C 20 min; EMSA 10 nM FAM probe (carbamyl phosphate with CzcR3); footprinting 40 nM probe, about …
[4] = tested on: T2, CadR (Pseudomonas putida KT2440), ORF:5b9d404e; assay: EMSA; conditions: 10 mM Tris-HCl pH 8.0, 50 mM KCl, 5 mM MgCl2, 5% glycerol, 28 °C 20 min; EMSA 10 nM FAM probe (carbamyl phosphate with CzcR3); footprinting 40 nM probe, about …
T2 sequence: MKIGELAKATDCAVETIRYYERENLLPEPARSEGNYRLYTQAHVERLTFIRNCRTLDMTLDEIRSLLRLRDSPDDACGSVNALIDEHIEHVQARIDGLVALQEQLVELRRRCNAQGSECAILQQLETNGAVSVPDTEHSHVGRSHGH

[5] = tested on: T2, CadR (Pseudomonas putida KT2440), ORF:5b9d404e; assay: DNase I footprinting; conditions: 10 mM Tris-HCl pH 8.0, 50 mM KCl, 5 mM MgCl2, 5% glycerol, 28 °C 20 min; EMSA 10 nM FAM probe (carbamyl phosphate with CzcR3); footprinting 40 nM probe, about …

Substance “CzcR3, the response regulator of two-component system CzcRS3 (from UniProt F6KX51 1-224) (natural protein)” has a stoichiometry N [1] of 2.

With “GATTATCGAACTTATTGGGCGTTGACTGTCCTGTACCCAGCCGTGCAAAGCTGCTTCTGCAACGAACCGCAGTGCGTCATTACAAAATTGTAATCTTGCCGCCACCGCCCCGATAACCAGCCCTTTCTACAGTCCCTGGCCAATGCT (double strand) [czcC2 (czcCBA2) promoter probe]” the binding [2] was “binds” and the binding [3] was “binds”.

For “GTATCGAAATCATCGTGTCGGGTTGGGTTTCCCAGTATTTACGGGCATTACAAAGCTTTCTTACGAAATTGTAATTTTCTAGCCACCCCTCTGATAGCTACCGCTCATTAGAGTGCCATCACCTAATCAAGTGGGGCTTGGCAGCTGTTTCGGCGTTCTCGCCAAGCTTTATCGAAGTTTGTGCACGAGGACCATCAAAGTGCCCCGGTATAACCGCA (double strand) [czcC1 (czcCBA1) promoter probe]”, the binding [2] was “binds” and the binding [3] was “binds”.

For “TGTAAAACGACGGCCAGTTACAGGCGCGGGTTTACTCGCGAAGAGGCCCGAACAGACAGCCAGATAACAGCAGAATTACAAATCCGTTATCTGCACCGCAGGCCTTTTTTCATGCCGTAACATTGGGGCGCTTGACAAAGATGTCACTACAAAGTCAAGAATCGTCCCCTTTCAACATACCGAGCCCCCCATG (double strand) [czcRS3 (czcR3) promoter probe, mutated CadR site]”, the binding [4] was “no binding”.

In the case of “TGTAAAACGACGGCCAGTTACAGGCGCGGGTTTACTCGCGAAGAGGCCCGAACAGACAGCCAGATAACAGCAGAATTACAAATCCGTTATCTGCACCGCAGGCCTTTTTTCATGCCGTAACATTGGGGCGCTTGACCCTGATGTCACTACAGGGTCAAGAATCGTCCCCTTTCAACATACCGAGCCCCCCATG (double strand) [czcRS3 (czcR3) promoter probe, native]”, the binding [4] is reported as “binds”, the binding [2] is reported as “binds” and the binding [5] is reported as “binds”. For the same substance, the binding [3] was “binds”.
